The RNAGym collection of RNA variant scans (doi:10.7554/elife.80360)

B1: CPEB3 Ribozyme (parent)
chain: GGGGGCCACAGCAGAAGCGUUCACGUCGCGGCCCCUGUCAGAUUCUGGUGAAUCUGCGAAUUCUGCUGU

Variants of: B1
Test: self-cleavage, relative activity (ratio to wild type); higher = more cleavage; co-transcriptional

Variant | self-cleavage
GGGGGCCACAGCAGAAGCGUUCACGUCGCGGCACCUUUCAGAUUCUGGUGAAUCUGCGAAUUCUGCUGU | 0.12
GGGGGCCACAGCAGAAGCGUUCACGUCGCGGCACCUAUCAGAUUCUGGUGAAUCUGCGAAUUCUGCUGU | 0.26
GGGGGCCACAGCAGAAGCGUUCACGUCGCGGCACCUGUCAGAUCCUGGUGAAUCUGCGAAUUCUGCUGU | 0.656
GGGGGCCACAGCAGAAGCGUUCACGUCGCGGCACCUGUCAGAUACUGGUGAAUCUGCGAAUUCUGCUGU | 0.313
GGGGGCCACAGCAGAAGCGUUCACGUCGCGGCACCUGUCAGAUGCUGGUGAAUCUGCGAAUUCUGCUGU | 0.374
GGGGGCCACAGCAGAAGCGUUCACGUCGCGGCACCUGUCAGAUUCUGCUGAAUCUGCGAAUUCUGCUGU | 0.898
GGGGGCCACAGCAGAAGCGUUCACGUCGCGGCACCUGUCAGAUUCUGUUGAAUCUGCGAAUUCUGCUGU | 0.929
GGGGGCCACAGCAGAAGCGUUCACGUCGCGGCACCUGUCAGAUUCUGGUGAAUUUGCGAAUUCUGCUGU | 0.723
GGGGGCCACAGCAGAAGCGUUCACGUCGCGGCACCUGUCAGAUUCUGGUGAAUAUGCGAAUUCUGCUGU | 0.326
GGGGGCCACAGCAGAAGCGUUCACGUCGCGGCACCUGUCAGAUUCUGGUGAAUGUGCGAAUUCUGCUGU | 0.301
GGGGGCCACAGCAGAAGCGUUCACGUCGCGGUCCCUGUCAGAUUCUGGUGAAUCAGCGAAUUCUGCUGU | 0.989
GGGGGCCACAGCAGAAGCGUUCACGUCGCGGUCCCUGUCAGAUUCUGGUGAAUCGGCGAAUUCUGCUGU | 0.896
GGGGGCCACAGCAGAAGCGUUCACGUCGCGGCACCUGUCAGAUUCUGGUGAAUCUGCGAAUUCGGCUGU | 0.672
GGGGGCCACAGCAGAAGCGUUCACGUCGCGGCACCUGUCAGAUUCUGGUGAAUCUGCGAAUUCCGCUGU | 0.798
GGGGGCCACAGCAGAAGCGUUCACGUCGCGGCACCUGUCAGAUUCUGGUGAAUCUGCGAAUUCAGCUGU | 0.847
GGGGGCCACAGCAGAAGCGUUCACGUCGCGGCACCUGUCAGAUUCUCGUGAAUCUGCGAAUUCUGCUGU | 0.946
GGGGGCCACAGCAGAAGCGUUCACGUCGCGGCACCUGUCAGAUUCUAGUGAAUCUGCGAAUUCUGCUGU | 0.925
GGGGGCCACAGCAGAAGCGUUCACGUCGCGGCACCUGUCAGAUUCUGGUCAAUCUGCGAAUUCUGCUGU | 0.92
GGGGGCCACAGCAGAAGCGUUCACGUCGCGGCACCUGUCAGAUUCUGGUAAAUCUGCGAAUUCUGCUGU | 0.938
GGGGGCCACAGCAGAAGCGUUCACGUCGCGGCAGCUGUCAGAUUCUGGUGAAUCUGCGAAUUCUGCUGU | 0.229

Variant | self-cleavage
GGGGGCCACAGCAGAAGCGUUCACGUCGCGGCAACUGUCAGAUUCUGGUGAAUCUGCGAAUUCUGCUGU | 0.331
GGGGGCCACAGCAGAAGCGUUCACGUCGCGGUCCCUGUCAGAUUCUGGUGAAUCUGCGAAUGCUGCUGU | 0.864
GGGGGCCACAGCAGAAGCGUUCACGUCGCGGCACCUGUCAGAUUCUGGUGGAUCUGCGAAUUCUGCUGU | 0.7
GGGGGCCACAGCAGAAGCGUUCACGUCGCGGCACCUGUCAGAUUCUGGUGUAUCUGCGAAUUCUGCUGU | 0.46
GGGGGCCACAGCAGAAGCGUUCACGUCGCGGCACCUGUCAGAUUCUGGUGCAUCUGCGAAUUCUGCUGU | 0.366
GGGGGCCACAGCAGAAGCGUUCACGUCGCGGCACCUGUCAGAUUCUGGUGAAUCUGCGAGUUCUGCUGU | 0.378
GGGGGCCACAGCAGAAGCGUUCACGUCGCGGCACCUGUCAGAUUCUGGUGAAUCUGCGAUUUCUGCUGU | 0.38
GGGGGCCACAGCAGAAGCGUUCACGUCGCGGCACCUGUCAGAUUCUGGUGAAUCUGCGAAUUCUGCUAU | 0.951
GGGGGCCACAGCAGAAGCGUUCACGUCGCGGCACCUGUCAGAUUCUGGUGAAUCUGCGAAUUCUGCUUU | 0.904
GGGGGCCACAGCAGAAGCGUUCACGUCGCGGCACCUGUCAGAUUCUGGUGAAUCUGGGAAUUCUGCUGU | 0.263
GGGGGCCACAGCAGAAGCGUUCACGUCGCGGCACCUGUCAGAUUCUGGUGAAUCUGAGAAUUCUGCUGU | 0.345
GGGGGCCACAGCAGAAGCGUUCACGUCGCGGCACCUGUCAGAUUCUGGUGAAUCUGCGAAUUCUCCUGU | 0.529
GGGGGCCACAGCAGAAGCGUUCACGUCGCGGCACCUGUCAGAUUCUGGUGAAUCUGCGAAUUGUGCUGU | 0.513
GGGGGCCACAGCAGAAGCGUUCACGUCGCGGCACCUGUCAGAUUUUGGUGAAUCUGCGAAUUCUGCUGU | 0.799
GGGGGCCACAGCAGAAGCGUUCACGUCGCGGCACCUGUCAGAUUCUGGGGAAUCUGCGAAUUCUGCUGU | 0.981
GGGGGCCACAGCAGAAGCGUUCACGUCGCGGCACCUGUCAGAUUCUGGAGAAUCUGCGAAUUCUGCUGU | 0.965
GGGGGCCACAGCAGAAGCGUUCACGUCGCGGCACCUGUCAGAUUCUGGCGAAUCUGCGAAUUCUGCUGU | 0.926
GGGGGCCACAGCAGAAGCGUUCACGUCGCGGCACCCGUCAGAUUCUGGUGAAUCUGCGAAUUCUGCUGU | 0.785
GGGGGCCACAGCAGAAGCGUUCACGUCGCGGCACCGGUCAGAUUCUGGUGAAUCUGCGAAUUCUGCUGU | 0.256
